Results taken from publication PMC3999280.

How the values were obtained:
[1] = molecular target: LdtRLas (LdtR from 'Candidatus Liberibacter asiaticus', […]_01180) ('Candidatus Liberibacter asiaticus' str. psy62); test: SEC
[2] = molecular target: LdtRLas ('Candidatus Liberibacter asiaticus') (UniProt A0ABN4AZS1); test: EMSA; settings: EMSA: 50 mM Tris-HCl pH 7.2, 150 mM KCl, 10 mM MgCl2, 0.01% Triton X-100, 12.5 ng/uL each poly(dI-dC) and poly(dA-dT), 1 ng probe in 20 uL, 20 min at 37 C; 6% …

“LdtRLas (LdtR from 'Candidatus Liberibacter asiaticus', […]_01180) (natural protein)” showed a stoichiometry N [1] of 2.
In the case of PldtP (PldtPLas), the K half [2] is reported as 100 nM.
